Assay results published in article PMC6145688.

Biological target: Recombinant active autotaxin-β (ATXβ), Q13822
Assay: cell adhesion assay; plates coated with recombinant ATXβ; cells in HEPES-buffered Tyrode solution with 2 mM Mn2+, rested 1 h at 37° C, seeded 1 h, attached cells counted; cells preincubated 1 h with blocking antibodies (10 µg/mL) or peptides (50 µg/mL)
Settings: remark: other sources report otherwise

percent inhibition of DU145 cell adhesion on ATXβ by LM609 (anti-αvβ3): 60%
percent inhibition of KHOS cell adhesion on ATXβ by LM609 (anti-αvβ3): 15%
B1: Integrin αvβ3, P06756 31-1048; P05106 27-788 (receptor)
chain 1: FNLDVDSPAEYSGPEGSYFGFAVDFFVPSASSRMFLLVGAPKANTTQPGIVEGGQVLKCDWSSTRRCQPIEFDATGNRDYAKDDPLEFKSHQWFGASVRSKQDKILACAPLYHWRTEMKQEREPVGTCFLQDGTKTVEYAPCRSQDIDADGQGFCQGGFSIDFTKADRVLLGGPGSFYWQGQLISDQVAEIVSKYDPNVYSIKYNNQLATRTAQAIFDDSYLGYSVAVGDFNGDGIDDFVSGVPRAARTLGMVYIYDGKNMSSLYNFTGEQMAAYFGFSVAATDINGDDYADVFIGAPLFMDRGSDGKLQEVGQVSVSLQRASGDFQTTKLNGFEVFARFGSAIAPLGDLDQDGFNDIAIAAPYGGEDKKGIVYIFNGRSTGLNAVPSQILEGQWAARSMPPSFGYSMKGATDIDKNGYPDLIVGAFGVDRAILYRARPVITVNAGLEVYPSILNQDNKTCSLPGTALKVSCFNVRFCLKADGKGVLPRKLNFQVELLLDKLKQKGAIRRALFLYSRSPSHSKNMTISRGGLMQCEELIAYLRDESEFRDKLTPITIFMEYRLDYRTAADTTGLQPILNQFTPANISRQAHILLDCGEDNVCKPKLEVSVDSDQKKIYIGDDNPLTLIVKAQNQGEGAYEAELIVSIPLQADFIGVVRNNEALARLSCAFKTENQTRQVVCDLGNPMKAGTQLLAGLRFSVHQQSEMDTSVKFDLQIQSSNLFDKVSPVVSHKVDLAVLAAVEIRGVSSPDHVFLPIPNWEHKENPETEEDVGPVVQHIYELRNNGPSSFSKAMLHLQWPYKYNNNTLLYILHYDIDGPMNCTSDMEINPLRIKISSLQTTEKNDTVAGQGERDHLITKRDLALSEGDIHTLGCGVAQCLKIVCQVGRLDRGKSAILYVKSLLWTETFMNKENQNHSYSLKSSASFNVIEFPYKNLPIEDITNSTLVTTNVTWGIQPAPMPVPVWVIILAVLAGLLLLAVLVFVMYRMGFFKRVRPPQEEQEREQLQPHENGEGNSET
chain 2: GPNICTTRGVSSCQQCLAVSPMCAWCSDEALPLGSPRCDLKENLLKDNCAPESIEFPVSEARVLEDRPLSDKGSGDSSQVTQVSPQRIALRLRPDDSKNFSIQVRQVEDYPVDIYYLMDLSYSMKDDLWSIQNLGTKLATQMRKLTSNLRIGFGAFVDKPVSPYMYISPPEALENPCYDMKTTCLPMFGYKHVLTLTDQVTRFNEEVKKQSVSRNRDAPEGGFDAIMQATVCDEKIGWRNDASHLLVFTTDAKTHIALDGRLAGIVQPNDGQCHVGSDNHYSASTTMDYPSLGLMTEKLSQKNINLIFAVTENVVNLYQNYSELIPGTTVGVLSMDSSNVLQLIVDAYGKIRSKVELEVRDLPEELSLSFNATCLNNEVIPGLKSCMGLKIGDTVSFSIEAKVRGCPQEKEKSFTIKPVGFKDSLIVQVTFDCDCACQAQAEPNSHRCNNGNGTFECGVCRCGPGWLGSQCECSEEDYRPSQQDECSPREGQPVCSQRGECLCGQCVCHSSDFGKITGKYCECDDFSCVRYKGEMCSGHGQCSCGDCLCDSDWTGYYCNCTTRTDTCMSSNGLLCSGRGKCECGSCVCIQPGSYGDTCEKCPTCPDACTFKKECVECKKFDRGALHDENTCNRYCRDEIESVKELKDTGKDAVNCTYKNEDDCVVRFQYYEDSSGKSILYVVEEPECPKGPDILVVLLSVMGAILLIGLAALLIWKLLITIHDRKEFAKFEEERARAKWDTANNPLYKEATSTFTNITYRGT
